Results from US20190002564A1 (Hoffmann-La Roche, published 2019).

T1: human MCSP(D3 domain)-avi-his (human, UniProt Q6UVK1 1582-2224)
T1 construct: Recombinant D3 domain of MCSP (CSPG4) with avi and his tags; also called hu-MCSP(D3 domain)-avi-his; human MCSP antigen
T1 sequence: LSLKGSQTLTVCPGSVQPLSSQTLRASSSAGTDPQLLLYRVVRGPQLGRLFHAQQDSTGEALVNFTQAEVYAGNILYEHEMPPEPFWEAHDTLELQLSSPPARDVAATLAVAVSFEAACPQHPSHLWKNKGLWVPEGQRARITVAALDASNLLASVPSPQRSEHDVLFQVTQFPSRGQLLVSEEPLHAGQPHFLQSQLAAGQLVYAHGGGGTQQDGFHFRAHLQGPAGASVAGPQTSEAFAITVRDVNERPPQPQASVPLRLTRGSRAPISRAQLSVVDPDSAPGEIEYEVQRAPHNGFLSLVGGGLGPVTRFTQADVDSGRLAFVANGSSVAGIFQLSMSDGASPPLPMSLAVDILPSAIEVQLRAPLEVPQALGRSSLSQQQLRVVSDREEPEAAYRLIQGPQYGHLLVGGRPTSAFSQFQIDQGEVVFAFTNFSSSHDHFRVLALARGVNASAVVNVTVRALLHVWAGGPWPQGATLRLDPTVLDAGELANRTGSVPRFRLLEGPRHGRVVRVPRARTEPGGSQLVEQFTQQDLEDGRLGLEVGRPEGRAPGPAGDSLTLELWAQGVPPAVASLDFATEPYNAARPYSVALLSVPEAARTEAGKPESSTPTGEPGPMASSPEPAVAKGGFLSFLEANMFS

T2: cynomolgus MCSP D3 (cynomolgus, UniProt Q6UVK1 1582-2224 (human entry), limits assumed)
T2 construct: Recombinant, captured through anti-Penta His in the avidity set-up; also called Cyno MCSP; cynomolgus homologue
T2 chain: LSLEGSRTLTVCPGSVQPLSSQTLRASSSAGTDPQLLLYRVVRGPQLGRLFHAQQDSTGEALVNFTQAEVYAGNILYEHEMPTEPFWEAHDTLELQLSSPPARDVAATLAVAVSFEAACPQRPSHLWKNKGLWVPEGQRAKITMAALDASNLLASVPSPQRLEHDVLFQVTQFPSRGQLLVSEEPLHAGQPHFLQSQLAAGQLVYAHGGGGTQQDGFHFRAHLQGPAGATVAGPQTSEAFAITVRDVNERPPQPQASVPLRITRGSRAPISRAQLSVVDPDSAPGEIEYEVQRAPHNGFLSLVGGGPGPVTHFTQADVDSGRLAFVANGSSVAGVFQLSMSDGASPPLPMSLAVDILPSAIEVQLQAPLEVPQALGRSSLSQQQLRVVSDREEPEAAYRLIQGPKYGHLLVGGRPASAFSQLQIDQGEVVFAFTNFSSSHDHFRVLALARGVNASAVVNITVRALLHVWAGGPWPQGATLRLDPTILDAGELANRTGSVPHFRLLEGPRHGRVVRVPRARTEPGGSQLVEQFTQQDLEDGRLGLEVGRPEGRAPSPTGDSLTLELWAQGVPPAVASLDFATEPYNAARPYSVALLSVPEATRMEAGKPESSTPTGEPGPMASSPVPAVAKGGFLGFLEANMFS


Legend:
[1] = biological target: T1, human MCSP(D3 domain)-avi-his; test: SPR ProteOn XPR36; parental M4-3/ML2 IgG KD against variant IgG KD
cynomolgus MCSP D3 = biological target: T2, cynomolgus MCSP D3; test: as above

Fold increase over parent (IgG KD) [1]	Fold increase over parent (IgG KD) (cynomolgus MCSP D3)	Binder
6.7 fold	2.9 fold	M4-3(A7)/ML2(E10) IgG (antibody, V domains shown, Human IgG1 format, purified from mammalian production) VH: QVQLQESGPGLVKPSQTLSLTCTVSGGSITDGYYWNWIRQHPGKGLEWIGYITFDGRNNYNPSLKSRVTISRDTSKNQFSLKLSSVTAADTAVYYCADFDYWGQGTLVTVSS VL: DIQMTQSPSSLSASVGDRVTITCRASYGIRGYLNWYQQKPGKAPKLLIYYTSSLHSGVPSRFSGSGSGTDFTLTISSLQPEDFATYHCQQYSKLPWTFGQGTKVEIK
28.6 fold	10 fold	M4-3(C1)/ML2(G3) IgG (antibody, V domains shown, Human IgG1 format, produced in HEK293-EBNA) VH: QVQLQESGPGLVKPSQTLSLTCTVSGGSITSGYYWNWIRQHPGKGLEWIGYITFDGSNNYNPSLKSRVTISRDTSKNQFSLKLSSVTAADTAVYYCADFDYWGQGTLVTVSS VL: DIQMTQSPSSLSASVGDRVTITCRASQGIRNYLNWYQQKPGKAPKLLIYYTSSLHSGVPSRFSGSGSGTDYTLTISSLQPEDFATYYCQQYSALPWTFGQGTKVEIKR
5 fold	2 fold	M4-3(D6)/ML2 IgG (antibody, V domains shown, Human IgG1 format, purified from mammalian production) VH: QVQLQESGPGLVKPSQTLSLTCTVSGGSITSGYYWNWIRQHPGKGLEWIGYITFDGKNNYNPSLKSRVTISRDTSKNQFSLKLSSVTAADTAVYYCADFDYWGQGTLVTVSS VL: DIQMTQSPSSLSASVGDRVTITCRASQGIRNYLNWYQQKPGKAPKLLIYYTSSLHSGVPSRFSGSGSGTDFTLTISSLQPEDFATYYCQQYSKLPWTFGQGTKVEIK
4 fold	3.3 fold	M4-3(C1)/ML2(E10) IgG (antibody, V domains shown, Human IgG1 format, produced in HEK293-EBNA) VH: QVQLQESGPGLVKPSQTLSLTCTVSGGSITSGYYWNWIRQHPGKGLEWIGYITFDGSNNYNPSLKSRVTISRDTSKNQFSLKLSSVTAADTAVYYCADFDYWGQGTLVTVSS VL: DIQMTQSPSSLSASVGDRVTITCRASYGIRGYLNWYQQKPGKAPKLLIYYTSSLHSGVPSRFSGSGSGTDFTLTISSLQPEDFATYHCQQYSKLPWTFGQGTKVEIK
10 fold	6.7 fold	M4-3(C1)/ML2(C5) IgG (antibody, V domains shown, Human IgG1 format, produced in HEK293-EBNA) VH: QVQLQESGPGLVKPSQTLSLTCTVSGGSITSGYYWNWIRQHPGKGLEWIGYITFDGSNNYNPSLKSRVTISRDTSKNQFSLKLSSVTAADTAVYYCADFDYWGQGTLVTVSS VL: DIQMTQSPSSLSASVGDRVTITCRASRGIREYLNWYQQKPGKAPKLLIYYTGSLHSGVPSRFSGSGSGTDFTLTISSLQPEDFATYYCQQYSELPWTFGQGTKVEIK
2 fold	1 fold	M4-3/ML2(E10) IgG (antibody, V domains shown, Human IgG1 format, purified from mammalian production) VH: QVQLQESGPGLVKPSQTLSLTCTVSGGSITSGYYWNWIRQHPGKGLEWIGYITYDGSNNYNPSLKSRVTISRDTSKNQFSLKLSSVTAADTAVYYCADFDYWGQGTLVTVSS VL: DIQMTQSPSSLSASVGDRVTITCRASYGIRGYLNWYQQKPGKAPKLLIYYTSSLHSGVPSRFSGSGSGTDFTLTISSLQPEDFATYHCQQYSKLPWTFGQGTKVEIK
28.6 fold	10 fold	M4-3(A7)/ML2(C5) IgG (antibody, V domains shown, Human IgG1 format, purified from mammalian production) VH: QVQLQESGPGLVKPSQTLSLTCTVSGGSITDGYYWNWIRQHPGKGLEWIGYITFDGRNNYNPSLKSRVTISRDTSKNQFSLKLSSVTAADTAVYYCADFDYWGQGTLVTVSS VL: DIQMTQSPSSLSASVGDRVTITCRASRGIREYLNWYQQKPGKAPKLLIYYTGSLHSGVPSRFSGSGSGTDFTLTISSLQPEDFATYYCQQYSELPWTFGQGTKVEIK
6.7 fold	3.3 fold	M4-3/ML2(G3) IgG (antibody, V domains shown, Human IgG1 format, purified from mammalian production) VH: QVQLQESGPGLVKPSQTLSLTCTVSGGSITSGYYWNWIRQHPGKGLEWIGYITYDGSNNYNPSLKSRVTISRDTSKNQFSLKLSSVTAADTAVYYCADFDYWGQGTLVTVSS VL: DIQMTQSPSSLSASVGDRVTITCRASQGIRNYLNWYQQKPGKAPKLLIYYTSSLHSGVPSRFSGSGSGTDYTLTISSLQPEDFATYYCQQYSALPWTFGQGTKVEIK
5 fold	2.2 fold	M4-3/ML2(E10/G3) IgG (antibody, V domains shown, Human IgG1 format, purified from mammalian production) VH: QVQLQESGPGLVKPSQTLSLTCTVSGGSITSGYYWNWIRQHPGKGLEWIGYITYDGSNNYNPSLKSRVTISRDTSKNQFSLKLSSVTAADTAVYYCADFDYWGQGTLVTVSS VL: DIQMTQSPSSLSASVGDRVTITCRASYGIRGYLNWYQQKPGKAPKLLIYYTSSLHSGVPSRFSGSGSGTDFTLTISSLQPEDFATYHCQQYSALPWTFGQGTKVEIK
2.2 fold	2 fold	M4-3(B8)/ML2 IgG (antibody, V domains shown, Human IgG1 format, purified from mammalian production) VH: QVQLQESGPGLVKPSQTLSLTCTVSGGSITSGYYWNWIRQHPGKGLEWIGYITFDGRNNYNPSLKSRVTISRDTSKNQFSLKLSSVTAADTAVYYCADFDYWGQGTLVTVSS VL: DIQMTQSPSSLSASVGDRVTITCRASQGIRNYLNWYQQKPGKAPKLLIYYTSSLHSGVPSRFSGSGSGTDFTLTISSLQPEDFATYYCQQYSKLPWTFGQGTKVEIK
5 fold	2 fold	M4-3/ML2(C5) IgG (antibody, V domains shown, Human IgG1 format, purified from mammalian production) VH: QVQLQESGPGLVKPSQTLSLTCTVSGGSITSGYYWNWIRQHPGKGLEWIGYITYDGSNNYNPSLKSRVTISRDTSKNQFSLKLSSVTAADTAVYYCADFDYWGQGTLVTVSS VL: DIQMTQSPSSLSASVGDRVTITCRASRGIREYLNWYQQKPGKAPKLLIYYTGSLHSGVPSRFSGSGSGTDFTLTISSLQPEDFATYYCQQYSELPWTFGQGTKVEIK
2.2 fold	2.5 fold	M4-3(C1)/ML2 IgG (antibody, V domains shown, Human IgG1 format, purified from mammalian production) VH: QVQLQESGPGLVKPSQTLSLTCTVSGGSITSGYYWNWIRQHPGKGLEWIGYITFDGSNNYNPSLKSRVTISRDTSKNQFSLKLSSVTAADTAVYYCADFDYWGQGTLVTVSS VL: DIQMTQSPSSLSASVGDRVTITCRASQGIRNYLNWYQQKPGKAPKLLIYYTSSLHSGVPSRFSGSGSGTDFTLTISSLQPEDFATYYCQQYSKLPWTFGQGTKVEIK
28.6 fold	10 fold	M4-3(A7)/ML2(G3) IgG (antibody, V domains shown, Human IgG1 format, purified from mammalian production) VH: QVQLQESGPGLVKPSQTLSLTCTVSGGSITDGYYWNWIRQHPGKGLEWIGYITFDGRNNYNPSLKSRVTISRDTSKNQFSLKLSSVTAADTAVYYCADFDYWGQGTLVTVSS VL: DIQMTQSPSSLSASVGDRVTITCRASQGIRNYLNWYQQKPGKAPKLLIYYTSSLHSGVPSRFSGSGSGTDYTLTISSLQPEDFATYYCQQYSALPWTFGQGTKVEIK
2.5 fold	2 fold	M4-3(A7)/ML2 IgG (antibody, V domains shown, Human IgG1 format, purified from mammalian production) VH: QVQLQESGPGLVKPSQTLSLTCTVSGGSITDGYYWNWIRQHPGKGLEWIGYITFDGRNNYNPSLKSRVTISRDTSKNQFSLKLSSVTAADTAVYYCADFDYWGQGTLVTVSS VL: DIQMTQSPSSLSASVGDRVTITCRASQGIRNYLNWYQQKPGKAPKLLIYYTSSLHSGVPSRFSGSGSGTDFTLTISSLQPEDFATYYCQQYSKLPWTFGQGTKVEIK
2.9 fold	2 fold	M4-3/ML2(C5/G3) IgG (antibody, V domains shown, Human IgG1 format, purified from mammalian production) VH: QVQLQESGPGLVKPSQTLSLTCTVSGGSITSGYYWNWIRQHPGKGLEWIGYITYDGSNNYNPSLKSRVTISRDTSKNQFSLKLSSVTAADTAVYYCADFDYWGQGTLVTVSS VL: DIQMTQSPSSLSASVGDRVTITCRASRGIREYLNWYQQKPGKAPKLLIYYTGSLHSGVPSRFSGSGSGTDFTLTISSLQPEDFATYYCQQYSALPWTFGQGTKVEIK
4 fold	2.9 fold	M4-3(B7)/ML2 IgG (antibody, V domains shown, Human IgG1 format, purified from mammalian production) VH: QVQLQESGPGLVKPSQTLSLTCTVSGGSITSGYYWNWIRQHPGKGLEWIGYITFDGINNYNPSLKSRVTISRDTSKNQFSLKLSSVTAADTAVYYCADFDYWGQGTLVTVSS VL: DIQMTQSPSSLSASVGDRVTITCRASQGIRNYLNWYQQKPGKAPKLLIYYTSSLHSGVPSRFSGSGSGTDFTLTISSLQPEDFATYYCQQYSKLPWTFGQGTKVEIK
